Test [1] has as its target NbSPL6-Yc (N. benthamiana). Briefly: split reporter (BiFC, NanoBiT); as a5, but with tCFP alone in place of tCFP-p50-U1.
The target of test [2] is NbSPL6-Yc (N. benthamiana). Briefly: split reporter (BiFC, NanoBiT); as a5, but with the non-eliciting p50-Ob-tCFP in place of tCFP-p50-U1; percent of cells as the ratio to the cells seen with tCFP-p50-U1.

Here are results for one molecule from PMC3597514.

B1: gN-Yn (receptor)
chain: MASSSSSSRWSYDVFLSFRGEDTRKTFTSHLYEVLNDKGIKTFQDDKRLEYGATIPGELCKAIEESQFAIVVFSENYATSRWCLNELVKIMECKTRFKQTVIPIFYDVDPSHVRNQKESFAKAFEEHETKYKDDVEGIQRWRIALNEAANLKGSCDNRDKTDADCIRQIVDQISSKLCKISLSYLQNIVGIDTHLEKIESLLEIGINGVRIMGIWGMGGVGKTTIARAIFDTLLGRMDSSYQFDGACFLKDIKENKRGMHSLQNALLSELLREKANYNNEEDGKHQMASRLRSKKVLIVLDDIDNKDHYLEYLAGDLDWFGNGSRIIITTRDKHLIEKNDIIYEVTALPDHESIQLFKQHAFGKEVPNENFEKLSLEVVNYAKGLPLALKVWGSLLHNLRLTEWKSAIEHMKNNSYSGIIDKLKISYDGLEPKQQEMFLDIACFLRGEEKDYILQILESCHIGAEYGLRILIDKSLVFISEYNQVQMHDLIQDMGKYIVNFQKDPGERSRLWLAKEVEEVMSNNTGTMAMEAIWVSSYSSTLRFSNQAVKNMKRLRVFNMGRSSTHYAIDYLPNNLRCFVCTNYPWESFPSTFELKMLVHLQLRHNSLRHLWTETKHLPSLRRIDLSWSKRLTRTPDFTGMPNLEYVNLYQCSNLEEVHHSLGCCSKVIGLYLNDCKSLKRFPCVNVESLEYLGLRSCDSLEKLPEIYGRMKPEIQIHMQGSGIRELPSSIFQYKTHVTKLLLWNMKNLVALPSSICRLKSLVSLSVSGCSKLESLPEEIGDLDNLRVFDASDTLILRPPSSIIRLNKLIILMFRGFKDGVHFEFPPVAEGLHSLEYLNLSYCNLIDGGLPEEIGSLSSLKKLDLSRNNFEHLPSSIAQLGALQSLDLKDCQRLTQLPELPPELNELHVDCHMALKFIHYLVTKRKKLHRVKLDDAHNDTMYNLFAYTMFQNISSMRHDISASDSLSLTVFTGQPYPEKIPSWFHHQGWDSSVSVNLPENWYIPDKFLGFAVCYSRSLIDTTAHLIPVCDDKMSRMTQKLALSECDTESSNYSEWDIHFFFVPFAGLWDTSKANGKTPNDYGIIRLSFSGEEKMYGLRLLYKEGPEVNALLQMRENSNEPTEHSTGIRRTQYNNRTSFYELING
B1 gave a percent of cells with citrine fluorescence (with tCFP alone) (% of the cells) in test [1] of 10. The percent of cells with citrine fluorescence (with p50-Ob-tCFP) (% of the cells) in test [2] was determined as 13.
